Experimental data: paper PMC3664799 (Nucleic Acids Research, 2013)

T1: DnaEBs DNA polymerase (Bacillus subtilis DnaE) (Bacillus subtilis, UniProt O34623 1-1115)
T1 sequence (looked up): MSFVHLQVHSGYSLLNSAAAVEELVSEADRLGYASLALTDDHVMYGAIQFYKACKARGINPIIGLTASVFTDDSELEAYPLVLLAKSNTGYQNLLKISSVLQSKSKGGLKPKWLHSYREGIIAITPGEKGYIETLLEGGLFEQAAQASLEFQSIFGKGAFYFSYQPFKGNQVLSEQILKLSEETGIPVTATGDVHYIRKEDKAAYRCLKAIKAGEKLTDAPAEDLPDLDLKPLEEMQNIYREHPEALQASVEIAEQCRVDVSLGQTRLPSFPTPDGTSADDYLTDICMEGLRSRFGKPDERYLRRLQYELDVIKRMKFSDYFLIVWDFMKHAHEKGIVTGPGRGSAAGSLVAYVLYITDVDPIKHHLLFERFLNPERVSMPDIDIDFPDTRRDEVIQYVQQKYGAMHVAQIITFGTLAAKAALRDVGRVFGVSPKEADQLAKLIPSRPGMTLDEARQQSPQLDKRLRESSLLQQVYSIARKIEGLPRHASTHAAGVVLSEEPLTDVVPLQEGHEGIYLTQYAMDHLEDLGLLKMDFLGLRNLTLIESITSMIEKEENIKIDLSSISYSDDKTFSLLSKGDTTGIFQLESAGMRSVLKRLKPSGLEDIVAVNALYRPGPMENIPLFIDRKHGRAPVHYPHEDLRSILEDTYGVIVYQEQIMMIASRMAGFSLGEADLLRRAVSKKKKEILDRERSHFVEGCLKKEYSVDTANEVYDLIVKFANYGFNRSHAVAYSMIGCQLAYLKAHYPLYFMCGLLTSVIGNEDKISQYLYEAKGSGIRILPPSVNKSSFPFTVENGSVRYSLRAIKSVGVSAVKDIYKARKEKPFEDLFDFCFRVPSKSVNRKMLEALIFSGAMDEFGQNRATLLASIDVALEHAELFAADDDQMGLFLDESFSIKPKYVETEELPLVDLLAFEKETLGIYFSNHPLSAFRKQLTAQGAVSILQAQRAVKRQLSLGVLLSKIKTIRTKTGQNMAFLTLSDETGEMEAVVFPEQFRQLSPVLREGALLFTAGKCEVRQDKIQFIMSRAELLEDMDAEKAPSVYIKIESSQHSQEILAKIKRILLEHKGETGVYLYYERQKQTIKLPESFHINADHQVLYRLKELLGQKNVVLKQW

B1: DnaC6-DnaI6 complex (co-purified DnaC helicase and DnaI loader) (complex, Bacillus subtilis)
chain 1: MTDLLNDRLPPQNIEAEQAVLGAIFLQPSALTLASEVLIPDDFYRMSHQKIYNAMLVLGDRGEPVDLVTVTSELANTDLLEEVGGISYLTDIANSVPTAANIEYYAKIVEEKSILRRLIRTATTIAQDGYTREDEVEDLLSEAEKTIMEVAQRKNTSAFQNIKDVLVQTYDNIEQLHNRKGDITGIPTGFTELDRMTAGFQRNDLIIVAARPSVGKTAFALNIAQNVATKTDESVAIFSLEMGAEQLVMRMLCAEGNINAQNLRTGNLTEEDWGKLTMAMGSLSNSGIYIDDTPGIRVSEIRAKCRRLKQESGLGMILIDYLQLIQGSGRSKDNRQQEVSEISRELKSIARELQVPVIALSQLSRGVEQRQDKRPMMSDIRESGSIEQDADIVAFLYRDDYYDKETENKNIIEIIIAKQRNGPVGTVSLAFVKEYNKFVNLERRFDDAGVPPGA
chain 2: MEPIGRSLQGVTGRPDFQKRLEQMKEKVMKDQDVQAFLKENEEVIDQKMIEKSLNKLYEYIEQSKNCSYCSEDENCNNLLEGYHPKLVVNGRSIDIEYYECPVKRKLDQQKKQQSLMKSMYIQQDLLGATFQQVDISDPSRLAMFQHVTDFLKSYNETGKGKGLYLYGKFGVGKTFMLAAIANELAEKEYSSMIVYVPEFVRELKNSLQDQTLEEKLNMVKTTPVLMLDDIGAESMTSWVRDEVIGTVLQHRMSQQLPTFFSSNFSPDELKHHFTYSQRGEKEEVKAARLMERILYLAAPIRLDGENRRHP
B2: DnaG primase (Bacillus subtilis) (enzyme, UniProt P05096 1-603, looked up)
chain: MGNRIPDEIVDQVQKSADIVEVIGDYVQLKKQGRNYFGLCPFHGESTPSFSVSPDKQIFHCFGCGAGGNVFSFLRQMEGYSFAESVSHLADKYQIDFPDDITVHSGARPESSGEQKMAEAHELLKKFYHHLLINTKEGQEALDYLLSRGFTKELINEFQIGYALDSWDFITKFLVKRGFSEAQMEKAGLLIRREDGSGYFDRFRNRVMFPIHDHHGAVVAFSGRALGSQQPKYMNSPETPLFHKSKLLYNFYKARLHIRKQERAVLFEGFADVISAVSSDVKESIATMGTSLTDDHVKILRRNVEEIILCYDSDKAGYEATLKASELLQKKGCKVRVAMIPDGLDPDDYIKKFGGEKFKNDIIDASVTVMAFKMQYFRKGKNLSDEGDRLAYIKDVLKEISTLSGSLEQEVYVKQLASEFSLSQESLTEQLSVFSKQNKPADNSGETKTRRAHLTTKARQKRLRPAYENAERLLLAHMLRDRSVIKKVIDRVGFQFNIDEHRALAAYLYAFYEEGAELTPQHLMARVTDDHISQLLSDILMLQVNQELSEAELSDYVKKVLNQRNWSMIKEKEAERAEAERQKDFLRAASLAQEIVTLNRSLK

How the values were obtained:
[1] = molecular target: T1, DnaEBs DNA polymerase (Bacillus …); assay: SEC
[2] = molecular target: T1, DnaEBs DNA polymerase (Bacillus …); assay: SPR
[3] = molecular target: B1; assay: SPR

| binding result [1] | Ka [2] [M⁻¹] | Kd [2] [nM] | koff [2] [s⁻¹] | kon [2] [M⁻¹ s⁻¹] | Ka [3] [M⁻¹] | Kd [3] [nM] | koff [3] [s⁻¹] | kon [3] [M⁻¹ s⁻¹] | Binder |
| --- | --- | --- | --- | --- | --- | --- | --- | --- | --- |
| binds | – | – | – | – | – | – | – | – | B1 |
| – | 1.33e+08 | 752 | 0.00181 | 2400 | 3.77e+06 | 295 | 0.000287 | 1080 | B2 |
